Assay results as given in patent US20170080102A1.

B1: IMGN779 (anti-huCD33 antibody huMy9-6 conjugated to DGN462 via a cleavable disulfide sulfo-SPDB linker) (antibody, from a related filing, V domains shown)
VH: QVQLQQPGAEVVKPGASVKMSCKASGYTFTSYYIHWIKQTPGQGLEWVGVIYPGNDDISYNQKFQGKATLTADKSSTTAYMQLSSLTSEDSAVYYCAREVRLRYFDVWGQGTTVTVSS
VL: EIVLTQSPGSLAVSPGERVTMSCKSSQSVFFSSSQKNYLAWYQQIPGQSPRLLIYWASTRESGVPDRFTGSGSGTDFTLTISSVQPEDLAIYYCHQYLSSRTFGQGTKLEIKR

How the values were obtained:
[1] = molecular target: CD33 protein (human), on primary patient AML cells and AML cell lines (human) (UniProt P20138); test: cell-based or functional assay
[2] = molecular target: CD33 protein (human), on primary patient AML cells and AML cell lines (human) (UniProt P20138); test: cell-based or functional assay; remark: listed apart in the source

Chain of UniProt P20138 (P20138 18-364): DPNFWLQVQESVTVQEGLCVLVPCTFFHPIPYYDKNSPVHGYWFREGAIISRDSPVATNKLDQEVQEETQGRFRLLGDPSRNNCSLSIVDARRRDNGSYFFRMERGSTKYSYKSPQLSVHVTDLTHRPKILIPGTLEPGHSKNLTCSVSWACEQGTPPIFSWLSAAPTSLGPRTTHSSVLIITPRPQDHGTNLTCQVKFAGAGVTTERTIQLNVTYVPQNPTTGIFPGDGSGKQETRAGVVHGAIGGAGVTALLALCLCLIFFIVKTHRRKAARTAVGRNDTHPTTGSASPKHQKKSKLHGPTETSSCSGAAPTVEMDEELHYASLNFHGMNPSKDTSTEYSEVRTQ

| Molecule | IC50, cytotoxicity against primary patient AML cells [1] | IC50, cytotoxicity on MOLM-13 FLT3-ITD AML cell line (WST-8 assay) [2] | IC50, cytotoxicity on MV4-11 FLT3-ITD AML cell line (WST-8 assay) [2] | IC50, cytotoxicity on a panel of 21 AML cell lines (WST-8 assay) [2] | IC50, cytotoxicity on a panel of 21 AML cell lines (WST-8 assay), median [2] | IC50, in vitro cytotoxicity against primary patient AML cells [2] |
| --- | --- | --- | --- | --- | --- | --- |
| non-binding chimeric IgG1-DGN462 conjugate (antibody) | > 1000 pM |  |  |  |  |  |
| B1 |  | 5 pM | 2 pM | 2 to 3000 pM | 70 pM | 10 to 1500 pM |
